Test results reported in PMC9774334.

How the values were obtained:
purified protein [1] = substrate: C[C@@H]1O[C@@H](Oc2ccc([N+](=O)[O-])cc2)[C@@H](O)[C@H](O)[C@@H]1O; experiment: purified protein; conditions: McIlvaine buffer pH 5.5, 35 °C
purified protein [2] = substrate: O=[N+]([O-])c1ccc(O[C@@H]2O[C@@H](CO)[C@H](O)[C@@H](O)[C@@H]2O)cc1; experiment: purified protein; conditions: McIlvaine buffer pH 5.5, 35 °C

Protein | Km (purified protein [1]) | kcat (purified protein [1]) | kcat/Km (purified protein [1]) | Km (purified protein [2]) | kcat (purified protein [2]) | kcat/Km (purified protein [2])
ClAgl29B (Cecembia lonarensis LW9) (protein) QENKEKDRTPSSKHLTDNILQPKRSSDFMAFKYEYSTVDLYREFSESIMDKARSEVEILESVNRQGRYKPNVESLKLHEVPEWFEDAKLGIFLDWGPWSVPGYAPLKGAEASTGGSYPDWYEFLMDNLYKEYHDEVWGADFRRDDFLPLLTGENFNSEEYMLLAVNSGAKYFVPFTKHHAGWTMWESEFTKRNAVEMGPGRDIYKELIEAGKKYDMKMGFYFSVSEWEYPVIVDQNLSQWDPVKNLAIFQDALGQIPRATPLASYFPALHDRMISGKIPVKDYFADYMIPSFKEAVDKYDPDLVWYDGGWGSPVSISRTMETSAYFYNQAEGKKDVVINNRAGSSLSEDDLIKVRDLMDSGKRDEAMKIYLSGQQLGDYGTPEFTIGDVDIQSKWEVCRSISPAFGYNWQDDEASSLSGEELIKLFVDIVANNGNLLLVISPDGSGKLPDIQKDRLLELGDWMKVNAESIHNTRPWKVQKENDKFFTKSKDGKSLFVHCTNWPGENLIINTPIEEGIKGIKLLGSDINLQFTKASNGNLEIPIPKDFQNNPSLISKYVWTFKIDLN | 240 ± 11 µM | 0.0844 ± 0.0019 s⁻¹ | 352 ± 7 M⁻¹ s⁻¹ | 1790 ± 180 µM | 7.76 ± 0.41 s⁻¹ | 4340 ± 220 M⁻¹ s⁻¹
ClAgl29A (Cecembia lonarensis LW9) (protein) QVQYNPEKPARPEDHKPFFYKYNTRQLYEKFSDDLMQRAANDRKEIEKINQLGKYKPKKQSLDEHEVPEWFRDAKLGIFLDWGPWSVPGYAPPGSEGDTGGSYPDWYEFLMDFTYKAYHDSIWGEDFRRDDFLPLLHGNNFDSEEYAELAVQAGAKYMVPFARHHAGWTMWESKYTFRNAVEMGPKRDILKELVEASRKRDLKFGFYFSIAEWEYPVITKERVSQWDPYEDMAIFHDGMGLIPRPVPLASYFPARHDRMISGKIPVKDYFGDYMMPLFKEGVDLFDPDLVWYDGGWGTPANSSRVPELSAYFYNQAEGRKEVVINNRAGAYLDDSNLLKFNEVLKSGEHDKLLELYMKAEQIGDYLTPEYSIGNVDINEPWEVCRSISPAFGFNWTDNEENSLSSKELVKMFVGIVANNGNLLLVINPDGSGKLSNVQKDRLLDLGQWLKVNGEGIYSTRPWEIQESEGNFFTKSKNGEFIYIHILDKEKTTIEVPNLNPKNKGAISILGSKEKVLWENSGPITRITIPESFKDERNWPNKYGFTLKVAVK | 279 ± 5 µM | 0.0658 ± 0.0008 s⁻¹ | 236 ± 5 M⁻¹ s⁻¹ | 2010 ± 260 µM | 2 ± 0.11 s⁻¹ | 1000 ± 80 M⁻¹ s⁻¹
